Data published in US20170088624A1.

Target: Full length human CD40 (huCD40) on cells (human) (UniProt P25942)
Experiment: cell-based or functional assay

Chain of CP-870,893 (antibody) (VH): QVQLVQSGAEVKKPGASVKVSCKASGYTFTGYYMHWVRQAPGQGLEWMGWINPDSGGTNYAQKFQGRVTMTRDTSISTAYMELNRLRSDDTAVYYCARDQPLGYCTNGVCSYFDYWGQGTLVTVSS
Chain of CP-870,893 (antibody) (VL): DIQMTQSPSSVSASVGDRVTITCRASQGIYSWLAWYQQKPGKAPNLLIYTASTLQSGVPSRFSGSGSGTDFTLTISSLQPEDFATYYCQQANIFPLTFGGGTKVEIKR
Chain of Full length human CD40 (huCD40) on cells (human) (P25942 21-277): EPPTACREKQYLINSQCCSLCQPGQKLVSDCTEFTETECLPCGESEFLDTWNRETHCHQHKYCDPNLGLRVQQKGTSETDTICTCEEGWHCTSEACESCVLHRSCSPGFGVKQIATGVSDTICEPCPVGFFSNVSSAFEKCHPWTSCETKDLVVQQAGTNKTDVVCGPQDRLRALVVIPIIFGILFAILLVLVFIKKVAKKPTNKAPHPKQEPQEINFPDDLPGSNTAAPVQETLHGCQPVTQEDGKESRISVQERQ

**Q.** Which B cells EC50, CD23 surface expression, no cross-linker does the source give for CP-870,893 (antibody) here?
**A.** 3.17 ng/mL

**Q.** And the B cells EC50, CD80 surface expression, no cross-linker?
**A.** 7.34 ng/mL

**Q.** And the B cells EC50, CD83 surface expression, no cross-linker?
**A.** 4.28 ng/mL

**Q.** And the B cells EC50, CD86 surface expression, no cross-linker?
**A.** 4.04 ng/mL

**Q.** And the B cells EC50, HLA-DR surface expression, no cross-linker?
**A.** 8.15 ng/mL

**Q.** What about the DC EC50, CD80 surface expression, no cross-linker of the same substance?
**A.** 44.7 ng/mL

**Q.** What about the DC EC50, CD83 surface expression, no cross-linker of the same substance?
**A.** 245 ng/mL

**Q.** What about the DC EC50, CD86 surface expression, no cross-linker of the same substance?
**A.** 133 ng/mL

**Q.** And the DC EC50, HLA-DR surface expression, no cross-linker?
**A.** 242 ng/mL
